Test results taken from article PMC12102759.

B1: PEX5 peptide 110-125 (Peroxisomal targeting signal 1 receptor), 16-mer library wild type / PEX14 Pex14 (PEX14 PEX14, residues 16-84) (parent)
chain 1: ADLALSENWAQEFLAA
chain 2: TPGSENVLPREPLIATAVKFLQNSRVRQSPLATRRAFLKKKGLTDEEIDMAFQQSGTAADEPSSLGPAT
B2: AMOTL2 peptide 64-79 (Angiomotin-like protein 2), 16-mer library wild type / TNKS ANK (TNKS 12 ANK repeats, residues 174-649) (parent)
chain 1: QVLQQATRQEPQGQEH
chain 2: TGVPAVSGALRELLEACRNGDVSRVKRLVDAANVNAKDMAGRKSSPLHFAAGFGRKDVVEHLLQMGANVHARDDGGLIPLHNACSFGHAEVVSLLLCQGADPNARDNWNYTPLHEAAIKGKIDVCIVLLQHGADPNIRNTDGKSALDLADPSAKAVLTGEYKKDELLEAARSGNEEKLMALLTPLNVNCHASDGRKSTPLHLAAGYNRVRIVQLLLQHGADVHAKDKGGLVPLHNACSYGHYEVTELLLKHGACVNAMDLWQFTPLHEAASKNRVEVCSLLLSHGADPTLVNCHGKSAVDMAPTPELRERLTYEFKGHSLLQAAREADLAKVKKTLALEIINFKQPQSHETALHCAVASLHPKRKQVTELLLRKGANVNEKNKDFMTPLHVAAERAHNDVMEVLHKHGAKMNALDTLGQTALHRAALAGHLQTCRLLLSYGSDPSIISLQGFTAAQMGNEAVQQILSESTPIRTSD
B3: MXI1 peptide 4-19 (Max-interacting protein 1), 16-mer library wild type / SIN3A PAH2 (SIN3A PAH domain, residues 295-383) (parent)
chain 1: VKMINVQRLLEAAEFL
chain 2: SLQNNQPVEFNHAINYVNKIKNRFQGQPDIYKAFLEILHTYQKEQRNAKEAGGNYTPALTEQEVYAQVARLFKNQEDLLSEFGQFLPDA
B4: RNF115 peptide 69-84 (E3 ubiquitin-protein ligase RNF115), 16-mer library wild type / MDM2 SWIB (MDM2 SWIB/MDM2 domain, residues 17-125) (parent)
chain 1: THFAELWGHLDHTMFF
chain 2: SQIPASEQETLVRPKPLLLKLLKSVGAQKDTYTMKEVLFYLGQYIMTKRLYDEKQQHIVYCSNDLLGDLFGVPSFSVKEHRKIYTMIYRNLVVVNQQESSDSGTSVSEN
B5: PIP5K1C peptide 642-657 (Phosphatidylinositol 4-phosphate 5-kinase type-1 gamma), 16-mer library wild type / TLN1 PTB (TLN1 Phosphotyrosine-binding (PTB) domain, residues 309-401) (parent)
chain 1: TDERSWVYSPLHYSAQ
chain 2: GVSFFLVKEKMKGKNKLVPRLLGITKECVMRVDEKTKEVIQEWNLTNIKRWAASPKSFTLDFGDYQDGYYSVQTTEGEQIAQLIAGYIDIILK

Variants of: B1
Test: proteomic peptide phage display deep mutational scan (ProP-PD DMS): M13 P8 16-mer library selected against immobilised GST-tagged bait for four days (rounds), NGS of the eluted pools per day and pseudo-replica
Conditions: with PEX14 Pex14 (PEX14 PEX14, residues 16-84); bait immobilised on MaxiSorp plates (10 µg), library pre-cleared on GST, 2 h binding at 4 °C, five washes; one round per day, days 1-4; value from days 2 and 3; scale: average fractional NGS count over selection days 2 and 3

| Variant | screen value |
| --- | --- |
| chain 1 E12A | 0.000448 |
| chain 1 E12Q | 0.000147 |
| chain 1 E12N | 0 |
| chain 1 E12K | 0.000191 |
| chain 1 E12D | 0.000116 |
| chain 1 E12R | 9.56e-05 |
| chain 1 Q11G | 0.000317 |
| chain 1 Q11P | 0 |
| chain 1 Q11I | 0.000186 |
| chain 1 Q11K | 0 |
| chain 1 Q11T | 0.000165 |
| chain 1 F13G | 0 |
| chain 1 F13P | 0 |
| chain 1 F13L | 0.000183 |
| chain 1 F13K | 0 |
| chain 1 F13T | 0.0002 |
| chain 1 F13S | 9.56e-05 |
| chain 1 L5N | 9.07e-05 |
| chain 1 L5D | 0 |
| chain 1 L5I | 9.07e-05 |
| chain 1 L5E | 0 |
| chain 1 L5R | 0.000218 |
| chain 1 L5F | 0.000301 |
| chain 1 W9Q | 0 |
| chain 1 W9G | 0 |
| chain 1 W9Y | 0 |
| chain 1 W9M | 5.43e-05 |

| Variant | screen value |
| --- | --- |
| chain 1 W9P | 0 |
| chain 1 W9T | 0 |
| chain 1 W9L | 0 |
| chain 1 E7Q | 0.000175 |
| chain 1 S6M | 0.000156 |
| chain 1 S6W | 0 |
| chain 1 S6I | 0.000313 |
| chain 1 S6Y | 0.000301 |
| chain 1 S6A | 0.000293 |
| chain 1 S6T | 0 |
| chain 1 N8K | 7.71e-05 |
| chain 1 N8R | 0 |
| chain 1 N8Y | 0.000147 |
| chain 1 N8T | 0.000134 |
| chain 1 L3E | 0.000345 |
| chain 1 L3V | 0.000442 |
| chain 1 L3S | 0.000293 |
| chain 1 L3R | 0 |
| chain 1 D2S | 0 |
| chain 1 D2V | 0.000407 |
| chain 1 D2M | 0.000156 |
| chain 1 L14A | 0.000388 |
| chain 1 L14W | 0.000163 |
| chain 1 L14M | 9.56e-05 |
| chain 1 L14H | 0.000116 |
| chain 1 L14G | 0 |

Variants of: B2
Test: as above
Conditions: with TNKS ANK (TNKS 12 ANK repeats, residues 174-649); bait immobilised on MaxiSorp plates (10 µg), library pre-cleared on GST, 2 h binding at 4 °C, five washes; one round per day, days 1-4; value from days 2 and 3; keep out of graded; scale: average fractional NGS count over selection days 2 and 3

| Variant | screen value |
| --- | --- |
| chain 1 H16K | 8.3e-05 |
| chain 1 H16F | 7.99e-05 |
| chain 1 H16G | 6.49e-05 |
| chain 1 Q5W | 6.13e-05 |
| chain 1 Q5G | 2.86e-05 |
| chain 1 Q5D | 0.000115 |
| chain 1 Q5N | 8.23e-05 |
| chain 1 Q9I | 5.19e-05 |
| chain 1 Q9G | 7.98e-05 |
| chain 1 Q9K | 4.55e-05 |
| chain 1 E10D | 9.35e-05 |
| chain 1 E10W | 7.2e-05 |
| chain 1 E10R | 7.98e-05 |
| chain 1 T7K | 7.17e-05 |
| chain 1 T7D | 6.07e-05 |
| chain 1 T7R | 0 |
| chain 1 L3W | 8.89e-05 |
| chain 1 Q12K | 5.93e-05 |
| chain 1 Q12R | 4.06e-05 |

| Variant | screen value |
| --- | --- |
| chain 1 Q14G | 0.000146 |
| chain 1 Q14F | 3.1e-05 |
| chain 1 E15K | 0 |
| chain 1 E15G | 6.84e-05 |
| chain 1 R8P | 8.36e-05 |
| chain 1 R8F | 0 |
| chain 1 R8I | 0 |
| chain 1 A6K | 7.72e-05 |
| chain 1 A6P | 4.91e-05 |
| chain 1 A6Y | 5.3e-05 |
| chain 1 P11R | 0 |
| chain 1 P11D | 0 |
| chain 1 P11G | 0.000112 |
| chain 1 P11Q | 0 |
| chain 1 P11I | 5.08e-05 |
| chain 1 G13W | 0 |
| chain 1 G13Q | 0 |
| chain 1 G13I | 0 |

Variants of: B3
Test: as above
Conditions: with SIN3A PAH2 (SIN3A PAH domain, residues 295-383); bait immobilised on MaxiSorp plates (10 µg), library pre-cleared on GST, 2 h binding at 4 °C, five washes; one round per day, days 1-4; value from days 2 and 3; keep out of graded; scale: average fractional NGS count over selection days 2 and 3

| Variant | screen value |
| --- | --- |
| chain 1 A13F | 0.00117 |
| chain 1 A13G | 3.3e-05 |
| chain 1 A13H | 0.000246 |
| chain 1 A13M | 8.44e-05 |
| chain 1 A13D | 2.4e-05 |
| chain 1 A13I | 0.000995 |
| chain 1 A13K | 0 |
| chain 1 E14I | 0.00251 |
| chain 1 E14F | 0.000859 |
| chain 1 E14A | 0.0141 |
| chain 1 E14G | 0.00102 |
| chain 1 E14D | 0.0127 |
| chain 1 E11W | 0.00397 |
| chain 1 E11P | 0 |
| chain 1 E11G | 0 |

Variants of: B4
Test: as above
Conditions: with MDM2 SWIB (MDM2 SWIB/MDM2 domain, residues 17-125); bait immobilised on MaxiSorp plates (10 µg), library pre-cleared on GST, 2 h binding at 4 °C, five washes; one round per day, days 1-4; value from days 2 and 3; keep out of graded; scale: average fractional NGS count over selection days 2 and 3

| Variant | screen value |
| --- | --- |
| chain 1 F15E | 5.35e-05 |
| chain 1 L10W | 0.000123 |
| chain 1 L10A | 0 |
| chain 1 L10Y | 0 |
| chain 1 L10P | 0 |
| chain 1 L10E | 0 |
| chain 1 L10G | 0 |
| chain 1 F3P | 0.000115 |
| chain 1 F3K | 0 |
| chain 1 F3M | 0 |
| chain 1 L6S | 0 |
| chain 1 L6T | 0 |
| chain 1 H9L | 3.74e-05 |
| chain 1 H9P | 0 |
| chain 1 M14R | 6.33e-05 |
| chain 1 M14K | 7.54e-05 |
| chain 1 M14I | 5.94e-05 |
| chain 1 E5K | 0 |
| chain 1 E5M | 4.31e-05 |
| chain 1 E5L | 5.37e-05 |

| Variant | screen value |
| --- | --- |
| chain 1 E5I | 1.29e-05 |
| chain 1 E5F | 4.65e-05 |
| chain 1 E5P | 0 |
| chain 1 E5G | 0.00012 |
| chain 1 T1K | 5.86e-05 |
| chain 1 T1E | 8.39e-05 |
| chain 1 T1R | 1.6e-05 |
| chain 1 G8I | 3.49e-05 |
| chain 1 G8L | 6.83e-05 |
| chain 1 H12R | 4.65e-05 |
| chain 1 H12Y | 4.94e-05 |
| chain 1 H12W | 3.9e-05 |
| chain 1 W7E | 0 |
| chain 1 W7D | 0 |
| chain 1 W7K | 0 |
| chain 1 W7N | 0 |
| chain 1 A4R | 5.64e-05 |
| chain 1 D11V | 5.15e-05 |
| chain 1 T13F | 3.43e-05 |
| chain 1 T13E | 4.86e-05 |

Variants of: B5
Test: as above
Conditions: with TLN1 PTB (TLN1 Phosphotyrosine-binding (PTB) domain, residues 309-401); bait immobilised on MaxiSorp plates (10 µg), library pre-cleared on GST, 2 h binding at 4 °C, five washes; one round per day, days 1-4; value from days 2 and 3; keep out of graded; scale: average fractional NGS count over selection days 2 and 3

| Variant | screen value |
| --- | --- |
| chain 1 P10W | 8.28e-05 |
| chain 1 W6Q | 0 |
| chain 1 W6G | 3.45e-05 |
| chain 1 W6A | 2.49e-05 |
| chain 1 W6D | 0 |
| chain 1 W6H | 0 |
| chain 1 L11K | 8.99e-05 |
| chain 1 L11Q | 2.8e-05 |
| chain 1 L11D | 0 |
| chain 1 L11S | 3.05e-05 |
| chain 1 L11N | 8.93e-05 |
| chain 1 A15K | 0 |
| chain 1 A15Y | 9.95e-05 |
| chain 1 D2K | 0.000108 |
| chain 1 S9V | 3.45e-05 |
| chain 1 S9Q | 4.86e-05 |
| chain 1 S9L | 0 |
| chain 1 S9Y | 5.79e-05 |
| chain 1 S9K | 0 |
| chain 1 S9E | 6.87e-05 |
| chain 1 S9W | 0 |
| chain 1 R4I | 3.79e-05 |
